# Assay results published in US20250304927A1, “PRO-PEPTIDE VARIANTS FOR MODULATING ACTIVITY OF TRANSGLUTAMINASES” (CURIE CO. INC., priority 2022, published 2025).
# T1: thermostable variant of Streptomyces mobaraensis transglutaminase (Streptomyces mobaraensis, UniProt P81453 79-407)
# T1 sequence: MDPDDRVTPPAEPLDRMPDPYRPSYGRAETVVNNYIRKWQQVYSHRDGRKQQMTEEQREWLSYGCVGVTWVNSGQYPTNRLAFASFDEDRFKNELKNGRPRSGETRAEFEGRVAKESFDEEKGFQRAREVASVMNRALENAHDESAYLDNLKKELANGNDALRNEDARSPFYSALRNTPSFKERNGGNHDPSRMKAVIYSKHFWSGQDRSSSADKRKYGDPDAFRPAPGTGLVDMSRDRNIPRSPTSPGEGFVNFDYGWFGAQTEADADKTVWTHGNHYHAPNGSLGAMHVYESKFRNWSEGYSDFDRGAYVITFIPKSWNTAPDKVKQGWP
# Assays:
# [1] = molecular target: T1, thermostable variant of Streptomyces …; assay: cell-based or functional assay
# [2] = molecular target: T1, thermostable variant of Streptomyces …; assay: cell-based or functional assay; remark: listed apart in the source
Binder,Improvement in pH responsiveness of inhibitory peptide relative to WT [1] [fold],Improvement in binding affinity of inhibitory peptide relative to WT [2] [fold]
MINGAGEETKSYAETYRLTADDVANINALNESAPAASSAGPSFRAP [pro-peptide variant D2I],> 1.2,> 1.2
MDNGAGNETKSYAETYRLTADDVANINALNESAPAASSAGPSFRAP [pro-peptide variant E7N],> 5,> 1.2
MDNGAGEETKSYAETYRLTADDVANINALNESAPAAS [pro-peptide truncation variant ΔS38-P46],> 1.2,–
MDNGAGEETKSYAETYRLTADDVANINALNESAPAASSAGPSFRA [pro-peptide truncation variant ΔP46],> 1.2,> 1.2
MFNGAGEETKSYAETYRLTADDVANINALNESAPAASSAGPSFRAP [pro-peptide variant D2F],–,> 1.2
MPNGAGEETKSYAETYRLTADDVANINALNESAPAASSAGPSFRAP [pro-peptide variant D2P],> 5,> 1.2
MQNGAGEETKSYAETYRLTADDVANINALNESAPAASSAGPSFRAP [pro-peptide variant D2Q],> 1.2,> 1.2
MDNGAGSETKSYAETYRLTADDVANINALNESAPAASSAGPSFRAP [pro-peptide variant E7S],> 5,> 1.2
MSNGAGEETKSYAETYRLTADDVANINALNESAPAASSAGPSFRAP [pro-peptide variant D2S],> 1.2,> 1.2
MTNGAGEETKSYAETYRLTADDVANINALNESAPAASSAGPSFRAP [pro-peptide variant D2T],> 1.2,> 1.2
MDNGAGDETKSYAETYRLTADDVANINALNESAPAASSAGPSFRAP [pro-peptide variant E7D],–,> 1.2
MDNGAGHETKSYAETYRLTADDVANINALNESAPAASSAGPSFRAP [pro-peptide variant E7H],–,> 1.2
MDNGAGRETKSYAETYRLTADDVANINALNESAPAASSAGPSFRAP [pro-peptide variant E7R],–,> 1.2
MDNGAGEITKSYAETYRLTADDVANINALNESAPAASSAGPSFRAP [pro-peptide variant E8I],–,> 1.2
MDNGAGEVTKSYAETYRLTADDVANINALNESAPAASSAGPSFRAP [pro-peptide variant E8V],–,> 1.2
MDNGAGEECKSYAETYRLTADDVANINALNESAPAASSAGPSFRAP [pro-peptide variant T9C],–,> 1.2
MDNGAGEEDKSYAETYRLTADDVANINALNESAPAASSAGPSFRAP [pro-peptide variant T9D],–,> 1.2
MDNGAGEEEKSYAETYRLTADDVANINALNESAPAASSAGPSFRAP [pro-peptide variant T9E],–,> 1.2
MDNGAGEEIKSYAETYRLTADDVANINALNESAPAASSAGPSFRAP [pro-peptide variant T9I],–,> 1.2
MDNGAGEEPKSYAETYRLTADDVANINALNESAPAASSAGPSFRAP [pro-peptide variant T9P],–,> 1.2
MDNGAGEETKSYAEQYRLTADDVANINALNESAPAASSAGPSFRAP [pro-peptide variant T15Q],–,> 1.2
MDNGAGEETKSYAETYRFTADDVANINALNESAPAASSAGPSFRAP [pro-peptide variant L18F],–,> 1.2

Binder,Improvement in pH responsiveness of inhibitory peptide relative to WT [1] [fold],Improvement in binding affinity of inhibitory peptide relative to WT [2] [fold]
MDNGAGEETKSYAETYRLTAKDVANINALNESAPAASSAGPSFRAP [pro-peptide variant D21K],–,> 1.2
MDNGAGEETKSYAETYRLTADHVANINALNESAPAASSAGPSFRAP [pro-peptide variant D22H],–,> 1.2
MDNGAGEETKSYAETYRLTADNVANINALNESAPAASSAGPSFRAP [pro-peptide variant D22N],–,> 1.2
MDNGAGEETKSYAETYRLTADDVMNINALNESAPAASSAGPSFRAP [pro-peptide variant A24M],–,> 1.2
MDNGAGEETKSYAETYRLTADDVANVNALNESAPAASSAGPSFRAP [pro-peptide variant I26V],–,> 1.2
MDNGAGEESKSYAETYRLTADDVANINALNESAPAASSAGPSFRAP [pro-peptide variant T9S],> 1.2,–
MDNGAGEETKAYAETYRLTADDVANINALNESAPAASSAGPSFRAP [pro-peptide variant S11A],> 1.2,–
MDNGAGEETKTYAETYRLTADDVANINALNESAPAASSAGPSFRAP [pro-peptide variant S11T],> 1.2,–
MDNGAGEETKSRAETYRLTADDVANINALNESAPAASSAGPSFRAP [pro-peptide variant Y12R],> 1.2,–
MDNGAGEETKSYAKTYRLTADDVANINALNESAPAASSAGPSFRAP [pro-peptide variant E14K],> 5,–
MDNGAGEETKSYAYTYRLTADDVANINALNESAPAASSAGPSFRAP [pro-peptide variant E14Y],> 5,–
MDNGAGEETKSYAETYRCTADDVANINALNESAPAASSAGPSFRAP [pro-peptide variant L18C],> 1.2,–
MDNGAGEETKSYAETYRGTADDVANINALNESAPAASSAGPSFRAP [pro-peptide variant L18G],> 1.2,–
MDNGAGEETKSYAETYRRTADDVANINALNESAPAASSAGPSFRAP [pro-peptide variant L18R],> 1.2,–
MDNGAGEETKSYAETYRVTADDVANINALNESAPAASSAGPSFRAP [pro-peptide variant L18V],> 1.2,–
MDNGAGEETKSYAETYRLTATDVANINALNESAPAASSAGPSFRAP [pro-peptide variant D21T],> 1.2,–
MDNGAGEETKSYAETYRLTADSVANINALNESAPAASSAGPSFRAP [pro-peptide variant D22S],> 1.2,–
MDNGAGEETKSYAETYRLTADDVCNINALNESAPAASSAGPSFRAP [pro-peptide variant A24C],> 1.2,–
MDNGAGEETKSYAETYRLTADDVANINALNESAPAASRAGPSFRAP [pro-peptide variant S38R],> 1.2,–
MDNGAGEETKSYAETYRLTADDVANINALNESAPAASSAGPSFRAF [pro-peptide variant P46F],> 1.2,–
MDNGAGEETKSYAETYRLTADDVANINALNESAPAASSAGPSFRAM [pro-peptide variant P46M],> 1.2,–
MDNGAGEETKSYAETYRLTADDVANINALNESAPAASSAGPSFRAG [pro-peptide variant P46G],> 5,–
